Measurements: patent publication US20250171533A1 (NEXTPOINT THERAPEUTICS, published 2025)

Assays:
[1] = target: T1, KIR3DL3 expressed on cells (human, UniProt Q8N743 26-410); assay: blocking assay by flow cytometry on 300.19-KIR3DL3 cells; blocked ligand: recombinant biotinylated HHLA2, detected by streptavidin-APC
T1 construct: whole, on cells; One entry for KIR3DL3 on all the cell types; also called NK92MI cells
Protocol: Recombinant biotinylated HHLA2 at 5 mg/mL was added to the cells and incubated for 30 minutes. The cells were treated with 1:250 of APC-streptavidin for 30 minutes to detect recombinant biotinylated HHLA2 bound to cells. […] NPX267 blocked recombinant HHLA2-Fc from binding to its inhibitory receptor KIR3DL3 in a dose dependent manner.

[2] = target: T1, KIR3DL3 expressed on cells; assay: flow cytometry on primary human NK cells in whole blood, Donor KP63901, GeoMean of anti-human PE secondary; no unit in the table, unit taken from the axis Log [ug/ml]
Protocol: (§1) For primary human NK cells, human whole blood cells were treated with NPX267 at concentrations ranging from […] to […] for 30 minutes (FIG. 3C). Red blood cells were lysed and cells were stained with a cocktail of anti-human CD3, Anti-human CD56 and anti-human IgG4 PE. Flow cytometric analysis of primary antibody binding was detected using an anti-human PE secondary antibody.

[3] = target: T1, KIR3DL3 expressed on cells; assay: flow cytometry on primary human NK cells in whole blood, Donor KP63936, GeoMean of anti-human PE secondary; no unit in the table, unit taken from the axis Log [ug/ml]
Protocol: as §1

[4] = target: T2, recombinant KIR3DL3 protein (human) (human, UniProt Q8N743 26-322, limits assumed); assay: SPR (Biacore), KIR3DL3 protein immobilized on a CM5 chip, NPX267 as analyte; KIR3DL3 immobilized on CM5 chip; NPX267 IgG4 as analyte
T2 construct: also called human KIR3DL3; killer cell immunoglobulin like receptor, three Ig domains and long cytoplasmic tail 3
Protocol: (§2) The monovalent binding affinity of NPX267 to recombinant KIR3DL3 protein was determined by SPR using a Biacore instrument; KIR3DL3 protein was immobilized on a CM5 chip and NPX267 was run as the analyte. […] No off-target binding was found in a screen of greater than 5800 plasma membrane proteins.

[5] = target: T2, recombinant KIR3DL3 protein (human); assay: SPR (Biacore); column ka1 (1/Ms); the drawn table names KIR3DL3 as analyte and NPX267 as ligand, paragraph 256 says the reverse
Protocol: as §2

[6] = target: T1, KIR3DL3 expressed on cells; assay: flow cytometry on NK92MI cells, anti-human PE secondary, gMFI; no unit beside the number, unit taken from the axis log [ug/mL]
Protocol: (§3) Flow cytometric analysis of primary antibody binding was detected using an anti-human PE secondary antibody. The mean and standard deviation of duplicate data points are shown. Data performed in duplicate was entered into GraphPad Prism software and the EC₅₀ was determined using a 4-parameter nonlinear regression equation.
NK92 MI cells were treated with NPX267 at concentrations ranging from […] to 0.0005 mg/mL for 30 minutes (FIG. 3B). Flow cytometric analysis of primary antibody binding was detected using an anti-human PE secondary antibody. The mean and standard deviation of triplicate data points are shown.

[7] = target: T1, KIR3DL3 expressed on cells; assay: cell-based or functional assay
[8] = target: T1, KIR3DL3 expressed on cells; assay: flow cytometry on primary human NK cells in whole blood, Donor KP63935, GeoMean of anti-human PE secondary; no unit in the table, unit taken from the axis Log [ug/ml]
Protocol: as §1

[9] = target: T1, KIR3DL3 expressed on cells; assay: flow cytometry on 300.19-KIR3DL3 cells, anti-human PE secondary, gMFI
Protocol: as §3

[10] = target: T2, recombinant KIR3DL3 protein (human); assay: SPR (Biacore); column kd1 (1/s); the drawn table names KIR3DL3 as analyte and NPX267 as ligand, paragraph 256 says the reverse
Protocol: as §2

T2 sequence (Q8N743 26-322 limits assumed): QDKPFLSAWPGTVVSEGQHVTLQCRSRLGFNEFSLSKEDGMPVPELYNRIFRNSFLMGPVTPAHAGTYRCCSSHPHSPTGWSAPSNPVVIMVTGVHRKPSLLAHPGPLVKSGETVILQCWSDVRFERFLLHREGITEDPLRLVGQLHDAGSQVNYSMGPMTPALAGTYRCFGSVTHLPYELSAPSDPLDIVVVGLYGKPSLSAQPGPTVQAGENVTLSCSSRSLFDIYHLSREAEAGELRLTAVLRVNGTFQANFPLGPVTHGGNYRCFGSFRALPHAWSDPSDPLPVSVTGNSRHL
T1 sequence (Q8N743 26-410): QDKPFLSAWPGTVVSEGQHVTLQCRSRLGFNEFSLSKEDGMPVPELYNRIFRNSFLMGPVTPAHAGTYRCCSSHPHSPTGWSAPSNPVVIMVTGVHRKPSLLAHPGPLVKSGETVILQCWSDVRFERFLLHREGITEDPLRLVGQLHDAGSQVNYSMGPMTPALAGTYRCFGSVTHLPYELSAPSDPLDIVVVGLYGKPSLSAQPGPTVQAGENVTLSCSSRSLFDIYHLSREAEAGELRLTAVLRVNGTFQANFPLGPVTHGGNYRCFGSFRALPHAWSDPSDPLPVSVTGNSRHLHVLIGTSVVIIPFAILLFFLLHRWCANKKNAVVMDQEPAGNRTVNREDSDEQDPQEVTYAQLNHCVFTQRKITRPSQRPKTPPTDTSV

B1: NPX267 (Hu26E10z7p7) (antibody, human IgG4 S228P, kappa, V domains shown)
VH: QAQLVQSGAEVKKPGASVKVSCKASGYTFTSYNIHWVRQAPGQGLEWMGYIYPGDAVTNYNQKFKGRVTMTADTSTSTVYMELSSLRSEDTAVYYCARSGNYGNYEGFAYWGQGTLVTVSS
VL: DIQMTQSPSSLSASVGDRVTITCKASQDTQSYLSWFQQKPGKAPKTLIYRANRLVDGVPSRFSGSGSGTDFTLTISSLQPEDFATYYCLQYDEFPYTFGGGTKVEIKR
notes: For staining of tumor infiltrating NK cells an APC conjugate (NPX267-APC) was used; also called humanized version of 26E10
With B1 the “IC50 (read off the curve)” value [1] was about 0.05 µg/mL, the EC50 [2] was 0.0298 µg/mL and the EC50 [3] was 0.098 µg/mL. The Kd [4] was 0.679 nM, the kon [5] was 587000 M⁻¹ s⁻¹ and the EC50 [6] was 0.131 µg/mL. For the same binder, the “target cell death (Annexin V), NK92MI effector cells against K562 cells engineered to express HHLA2” value [7] was 2 fold, the EC50 [8] was 0.0294 µg/mL and the EC50 [9] was 0.0684 µg/mL. It also gave a koff [10] of 0.000398 s⁻¹.
